Source: article PMC12582304, “Asymmetric gating of a homopentameric ion channel GLIC revealed by cryo-EM” (Proceedings of the National Academy of Sciences of the …, 2025)

Biological target: the molecule itself
Experiment: cryo-EM structure; nanodisc-reconstituted GLIC-WT at pH 4.0; earlier dataset (ref. 44) reprocessed with symmetry expansion, focused classification and particle reorientation; C5 or no symmetry imposed

B1: Gloeobacter violaceus proton-gated ion channel (GLIC), wild type (natural protein)
chain: VSPPPPIADEPLTVNTGIYLIECYSLDDKAETFKVNAFLSLSWKDRRLAFDPVRSGVRVKTYEPEAIWIPEIRFVNVENARDADVVDISVSPDGTVQYLERFSARVLSPLDFRRYPFDSQTLHIYLIVRSVDTRNIVLAVDLEKVGKNDDVFLTGWDIESFTAVVKPANFALEDRLESKLDYQLRISRQYFSYIPNIILPMLFILFISWTAFWSTSYEANVTLVVSTLIAHIAFNILVETNLPKTPYMTYTGAIIFMIYLFYFVAVIEVTVQHYLKVESQPARAASITRASRIAFPVVFLLANIILAFLFFG
notes: GLIC, proton-gated pentameric ligand-gated ion channel of Gloeobacter violaceus; Homopentamer in DOPE/POPC/POPS nanodiscs; As I recall, the construct is the mature channel without its signal peptide, about 317 residues; also called GLIC-WT; WT; source: E. coli C41, purified (amylose resin, SEC), nanodisc-reconstituted
For B1, which “stoichiometry N” value is on record?
The value was 5.
